B1: Gal4-AD-CTMP fusion protein encoded by pGADGH.CTMP (CTMPL fused to the GAL4 transcriptional activation domain) (other, not shown: small tags and cut ends)
chain: NSARARASAAPRPGAMLRSCAARLRTLGALCRPPVGRRLPGSEPRPELRSFSSEEVILKDCSVPNPSWNKDLRLLFDQFMKKCEDGSWKRLPSYKRTPTEWIQDFKTHFLDPKLMKEEQMSQAQLFTRSFDDGLGFEYVMFYNDIEKRMVCLFQGGPYLEGPPGFIHGGAIATMIDATVGMCAMMAGGIVMTANLNINYKRPIPLCSVVMINSQLDKVEGRKFFVSCNVQSVDEKTLYSEATSLFIKLNPAKSLT
notes: Yeast two-hybrid prey recovered from a HeLa cDNA library; also called this clone
B2: GAL4 DNA binding domain fusion of human PKB alpha amino acids 411-480 (pGBT-CT) (other, yeast;human, UniProt P04386 1-147, looked up)
chain: MKLLSSIEQACDICRLKKLKCSKEKPKCAKCLKNNWECRYSPKTKRSPLTRAHLTEVESRLERLEQLFLLIFPREDLDMILKMDSLQDIKALLTGLFVQDNVNKDAVTDRLASVETDMPLTLRQHRISATSSSEESSNKGQRQLTVSIVWQHVYEKKLSPPFKPQVTSETDTRYFDEEFTAQMITITPPDQDDSMECVDSERRPHFPQFSYSASGTA
notes: range 1-147;range 411-480

Legend:
[1] = molecular target: T1, GAL4 DNA binding domain fusion of human PKB alpha amino acids 147-480 (pGBT-KIN-CT) (yeast; human, UniProt P04386 1-147; P31749 147-480); experiment: yeast two-hybrid, His auxotrophy and lacZ reporters
T1 construct: range 1-147;range 147-480; Bait of the library screen; also called deltaPH

[2] = molecular target: T2, GAL4 DNA binding domain fusion of human PKB alpha amino acids 1-480 (pGBT-PH-KIN-CT, full-length PKB) (yeast; human, UniProt P04386 1-147; P31749 1-480); experiment: as above
T2 construct: range 1-147;range 1-480

[3] = molecular target: B1; experiment: as above
[4] = molecular target: B2; experiment: yeast two-hybrid
[5] = molecular target: T1, GAL4 DNA binding domain fusion of human …; experiment: yeast two-hybrid
[6] = molecular target: T2, GAL4 DNA binding domain fusion of human …; experiment: yeast two-hybrid

## B1
[1]
  binding result: binds
[2]
  binding result: binds

## B2
[3]
  binding result: binds

B3: human Lamin C (control plasmid pLAM5') (other, UniProt P02545-2 66-230, looked up)
chain: SEEVVSREVSGIKAAYEAELGDARKTLDSVAKERARLQLELSKVREEFKELKARNTKKEGDLIAAQARLKDLEALLNSKEAALSTALSEKRTLEGELHDLRGQVAKLEAALGEAKKQLQDEMLRRVDAENRLQTMKEELDFQKNIYSEELRETKRRHETRLVEID
notes: Two-hybrid control protein; Lamin C is an isoform of the LMNA entry
[4]
  binding result: no binding
[5]
  binding result: no binding
[6]
  binding result: no binding

— patent US20030124602A1 (Novartis, published 2003)
